Source: the supplement of paper PMC10724198
± gives the standard deviation of the averaged measurements.

Test system: Saccharomyces cerevisiae
Assay: protein stability index of tFT-peptide fusion (C-terminal peptide) (PSI (0-1 scale)); higher = more stable (slower turnover)
Details: genetic background: wild type; temperature: 30 C
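Also: PSI is a weighted mean of sequencing reads over stability bins, variants kept only with over 10 reads, mCherry proximal and sfGFP distal, peptide attached via GGGS linker.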

Sequence	protein stability index
SSFVFGLCGGVA	0.694 ± 0.03
SSGPPRLPHSRR	0.646 ± 0.046
SSGTLSPLSPVP	0.655 ± 0.027
SSHSPFSPVLLP	0.71 ± 0.017
SSHVPPDLPSLH	0.692 ± 0.031
SSHYSSPAALPY	0.696 ± 0.019
SSILQFSCFHGN	0.707 ± 0.036
SSLEGMRSGLCR	0.69 ± 0.045
SSLFVISIPFRS	0.639 ± 0.015
SSLLPLLVPLAP	0.723 ± 0.076
SSLPVPGPFVND	0.69 ± 0.066
SSPALPPQPPSH	0.723 ± 0.0054
SSPLLSISPHFP	0.666 ± 0.042
SSPLPPPSPLPA	0.678 ± 0.031
SSPLSSRFLLCL	0.579 ± 0.027
SSPPHLPRPSSP	0.748 ± 0.024
SSPPPCPLPTYP	0.624 ± 0.068
SSPPPLPPSPPP	0.673 ± 0.019
SSPRRRLHSLSL	0.782 ± 0.04
SSPSPCSRPLLL	0.7112 ± 0.0011
SSPSPPSLLPSL	0.70987 ± 0.00056
SSPSPPSSSSFP	0.639 ± 0.028
SSRPTLLSPPPA	0.706 ± 0.012
SSRRNNIPKRYK	0.713 ± 0.031
SSSLCSSSLGGS	0.605 ± 0.069
SSSPTFLLSPFP	0.721 ± 0.012

Sequence	protein stability index
SSTPGWVSCDKI	0.735 ± 0.029
SSTPYRHLLTPH	0.723 ± 0.013
SSVNYPSFPPLA	0.706 ± 0.03
SSVQVSMGTAAG	0.681 ± 0.036
STAFRDSAMRDP	0.664 ± 0.051
STCPPIFFVSSW	0.7248 ± 0.0063
STLEKTFRVAKR	0.694 ± 0.011
STLIARAQRGQA	0.639 ± 0.073
STLSSPSRRLLP	0.677 ± 0.03
STPPPPPTFQLS	0.691 ± 0.047
STPRTPNFPATA	0.706 ± 0.019
STQIRQILERKC	0.653 ± 0.051
STRPDLLLLAES	0.6 ± 0.055
STSPFPAPRRAL	0.775 ± 0.052
STTILIKKKNDK	0.684 ± 0.041
STTPKFNILASD	0.646 ± 0.022
STVKVVIIHFKI	0.48 ± 0.036
STVPDRPRLPVY	0.674 ± 0.022
SVCVLGPLDGSC	0.701 ± 0.022
SVEKYDGGKGVV	0.69 ± 0.0095
SVESAVRALQPT	0.731 ± 0.042
SVFTLLGSMCLE	0.664 ± 0.011
SVGGSRSGRGGQ	0.688 ± 0.011
SVGLLLSPFPPL	0.6882 ± 0.0063
SVKGRVPLYVSE	0.658 ± 0.042
SVLVQLLATTKS	0.675 ± 0.028

Sequence	protein stability index
SVPLTLLPPLFP	0.694 ± 0.016
SVPLYRLSSWRN	0.695 ± 0.021
SVPPPPLARALL	0.759 ± 0.057
SVPTPPLVPSIS	0.665 ± 0.07
SVSLPPSLPFLL	0.764 ± 0.03
SVVGGVVVELEG	0.65 ± 0.0096
SVVVWRWVCGWS	0.549 ± 0.014
SVWDGSRVKCST	0.704 ± 0.04
SVYPSSPTRPPP	0.683 ± 0.048
SVYVGAQAFCTC	0.612 ± 0.025
SWCDKGSCLVDE	0.695 ± 0.07
SWIQLDAWETRS	0.696 ± 0.041
SWKEAIVAISGS	0.612 ± 0.058
SWRKGAHRPVEV	0.66 ± 0.036
SWRRAASSGGGE	0.618 ± 0.074
SWSVSVNMVGQS	0.6829 ± 0.0042
SWVFSVDNGLVV	0.6133 ± 0.0012
SWYQPSLREYAQ	0.74268 ± 0.00062
SWYSRARMAGEG	0.652 ± 0.0093
SYGTIGYLATSF	0.687 ± 0.075
SYLRGPIVTGFG	0.712 ± 0.077
SYLVLLHDRGMK	0.665 ± 0.011
SYMCRCALDCFL	0.643 ± 0.035
SYPSGFPSPSHP	0.834 ± 0.062
SYRHHPTVPSTY	0.705 ± 0.057
SYRPPYTQPTDL	0.658 ± 0.064

Sequence	protein stability index
TAPGYLGFSPFE	0.713 ± 0.034
TARIIAHPQTRI	0.661 ± 0.032
TARQNRARPGHP	0.678 ± 0.022
TASPAHTPTKTR	0.608 ± 0.051
TCAPTRISRTPG	0.6883 ± 0.00073
TCFPDLLVLPAR	0.7008 ± 0.0022
TCFWFTCSDPFF	0.773 ± 0.096
TCLWVCAWGFGG	0.716 ± 0.011
TCVLPDLNTRWS	0.685 ± 0.02
TDCAPRGGRWKR	0.656 ± 0.14
TDFPRDFPPVDL	0.7526 ± 0.0029
TEVWSGFARWGG	0.675 ± 0.046
TFFFLGSVFSLA	0.638 ± 0.043
TFFLPPSCFYPP	0.616 ± 0.051
TFNRIFGNALPG	0.688 ± 0.044
TFPATSLPSFSL	0.6861 ± 0.0031
TFPKKKGLLNIS	0.636 ± 0.028
TFRKMEKKKDGG	0.652 ± 0.018
TGAPSKQYDRFL	0.747 ± 0.045
TGEFILLFSWFV	0.584 ± 0.0024
TGEIREEWRKNI	0.54 ± 0.03
TGHFSTTPPRPH	0.714 ± 0.077
TGKTHSGNKYER	0.684 ± 0.059
